Consider six variants from IntAct's records for PubMed 31515488.

B1: Protein BANP (Homo sapiens), Q8N9N5-2 (parent)
chain: MMSEHDLADVVQIAVEDLSPDHPVVLENHVVTDEDEPALKRQRLEINCQDPSIKSFLYSINQTICLRLDSIEAKLQALEATCKSLEEKLDLVTNKQHSPIQVPMVAGSPLGATQTCNKVRCAVPGRRQNTIVVKVPGQEDSHHEDGESGSEASDSVSSCGQAGSQSIGSNVTLITLNSEEDYPNGTWLGDENNPEMRVRCAIIPSDMLHISTNCRTAEKMALTLLDYLFHREVQAVSNLSGQGKHGKKQLDPLTIYGIRCHLFYKFGITESDWYRIKQSIDSKCRTAWRRKQRGQSLAVKSFSRRTPNSSSYCPSEPMMSTPPPASELPQPQPQPQALHYALANAQQVQIHQIGEDGQVQVIPQGHLHIAQVPQGEQVQITQDSEGNLQIHHVGQDGQVLQGAQLIAVASSDPAAAGVDGSPLQGSDIQVQYVQLAPVSDHTAGAQTAEALQPTLQPEMQLEHGAIQIQ
partner: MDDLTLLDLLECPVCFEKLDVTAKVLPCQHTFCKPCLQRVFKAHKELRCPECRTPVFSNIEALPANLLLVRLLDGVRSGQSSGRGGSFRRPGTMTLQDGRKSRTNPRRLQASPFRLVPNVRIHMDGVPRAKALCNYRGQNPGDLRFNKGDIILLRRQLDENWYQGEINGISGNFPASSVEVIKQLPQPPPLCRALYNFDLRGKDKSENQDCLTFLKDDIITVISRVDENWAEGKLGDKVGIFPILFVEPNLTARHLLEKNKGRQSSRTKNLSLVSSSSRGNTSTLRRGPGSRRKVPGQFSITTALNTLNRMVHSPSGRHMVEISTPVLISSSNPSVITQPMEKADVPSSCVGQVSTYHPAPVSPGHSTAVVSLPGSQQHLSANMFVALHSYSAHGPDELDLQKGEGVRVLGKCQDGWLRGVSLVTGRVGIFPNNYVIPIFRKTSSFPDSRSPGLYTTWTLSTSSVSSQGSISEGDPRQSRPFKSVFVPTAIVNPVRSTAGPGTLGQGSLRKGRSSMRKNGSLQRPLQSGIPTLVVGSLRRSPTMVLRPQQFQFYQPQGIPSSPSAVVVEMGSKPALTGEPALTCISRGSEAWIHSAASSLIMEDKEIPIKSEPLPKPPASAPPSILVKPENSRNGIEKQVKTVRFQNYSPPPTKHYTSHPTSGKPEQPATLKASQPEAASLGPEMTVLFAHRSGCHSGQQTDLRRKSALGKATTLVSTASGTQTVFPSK
B2: Protein LDOC1 (Homo sapiens), O95751 (parent)
chain: MVDELVLLLHALLMRHRALSIENSQLMEQLRLLVCERASLLRQVRPPSCPVPFPETFNGESSRLPEFIVQTASYMLVNENRFCNDAMKVAFLISLLTGEAEEWVVPYIEMDSPILGDYRAFLDEMKQCFGWDDDEDDDDEEEEDDY
partner: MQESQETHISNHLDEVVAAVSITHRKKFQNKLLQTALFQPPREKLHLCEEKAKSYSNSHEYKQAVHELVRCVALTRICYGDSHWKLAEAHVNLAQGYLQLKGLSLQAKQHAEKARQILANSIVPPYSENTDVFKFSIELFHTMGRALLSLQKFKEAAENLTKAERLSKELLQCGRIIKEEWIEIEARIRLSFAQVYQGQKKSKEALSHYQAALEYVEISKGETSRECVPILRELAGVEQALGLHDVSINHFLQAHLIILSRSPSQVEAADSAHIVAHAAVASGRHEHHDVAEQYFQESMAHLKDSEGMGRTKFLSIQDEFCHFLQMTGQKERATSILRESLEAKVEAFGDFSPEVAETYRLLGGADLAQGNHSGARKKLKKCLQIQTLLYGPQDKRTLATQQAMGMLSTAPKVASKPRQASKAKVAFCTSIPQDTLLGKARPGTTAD
B3: SHC-transforming protein 1 (Homo sapiens), P29353 (parent)
chain: MDLLPPKPKYNPLRNESLSSLEEGASGSTPPEELPSPSASSLGPILPPLPGDDSPTTLCSFFPRMSNLRLANPAGGRPGSKGEPGRAADDGEGIVGAAMPDSGPLPLLQDMNKLSGGGGRRTRVEGGQLGGEEWTRHGSFVNKPTRGWLHPNDKVMGPGVSYLVRYMGCVEVLQSMRALDFNTRTQVTREAISLVCEAVPGAKGATRRRKPCSRPLSSILGRSNLKFAGMPITLTVSTSSLNLMAADCKQIIANHHMQSISFASGGDPDTAEYVAYVAKDPVNQRACHILECPEGLAQDVISTIGQAFELRFKQYLRNPPKLVTPHDRMAGFDGSAWDEEEEEPPDHQYYNDFPGKEPPLGGVVDMRLREGAAPGAARPTAPNAQTPSHLGATLPVGQPVGGDPEVRKQMPPPPPCPGRELFDDPSYVNVQNLDKARQAVGGAGPPNPAINGSAPRDLFDMKPFEDALRVPPPPQSVSMAEQLRGEPWFHGKLSRREAEALLQLNGDFLVRESTTTPGQYVLTGLQSGQPKHLLLVDPEGVVRTKDHRFESVSHLISYHMDNHLPIISAGSELCLQQPVERKL
partner: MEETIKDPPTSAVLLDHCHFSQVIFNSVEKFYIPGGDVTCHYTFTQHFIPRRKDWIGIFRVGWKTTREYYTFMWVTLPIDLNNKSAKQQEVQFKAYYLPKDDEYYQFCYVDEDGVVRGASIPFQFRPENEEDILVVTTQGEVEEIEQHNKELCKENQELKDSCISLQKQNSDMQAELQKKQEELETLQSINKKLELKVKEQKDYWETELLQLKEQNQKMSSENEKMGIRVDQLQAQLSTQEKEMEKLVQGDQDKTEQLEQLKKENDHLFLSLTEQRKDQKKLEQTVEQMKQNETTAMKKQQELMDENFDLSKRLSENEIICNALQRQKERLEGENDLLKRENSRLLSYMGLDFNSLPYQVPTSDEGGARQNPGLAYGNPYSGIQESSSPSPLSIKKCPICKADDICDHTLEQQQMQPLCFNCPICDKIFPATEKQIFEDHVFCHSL
B4: EF-hand calcium-binding domain-containing protein 4B (Homo sapiens), Q9BSW2 (parent)
chain: MAAPDGRVVSRPQRLGQGSGQGPKGSGACLHPLDSLEQKETQEQTSGQLVMLRKAQEFFQTCDAEGKGFIARKDMQRLHKELPLSLEELEDVFDALDADGNGYLTPQEFTTGFSHFFFSQNNPSQEDAGEQVAQRHEEKVYLSRGDEDLGDMGEDEEAQFRMLMDRLGAQKVLEDESDVKQLWLQLKKEEPHLLSNFEDFLTRIISQLQEAHEEKNELECALKRKIAAYDEEIQHLYEEMEQQIKSEKEQFLLKDTERFQARSQELEQKLLCKEQELEQLTQKQKRLEGQCTALHHDKHETKAENTKLKLTNQELARELERTSWELQDAQQQLESLQQEACKLHQEKEMEVYRVTESLQREKAGLLKQLDFLRERNKHLRDERDICFQKNKAAKANTAASRASWKKRSGSVIGKYVDSRGILRSQSEEEEEVFGIPRRSSLGLSGYPLTEEEPGTGEPGPGGPYPRPLRRIISVEEDPLPQLLDGGFEQPLSKCSEEEEVSDQGVQGQIPEAPPLKLTPTSPRGQPVGKEALCKEESSPSAPDRLFKIVFVGNSAVGKTSFLRRFCEDRFSPGMAATVGIDYRVKTLNVDNSQVALQLWDTAGQERYRCITQQFFRKADGVIVMYDLTDKQSFLSVRRWLSSVEEAVGDRVPVLLLGNKLDNEKEREVPRGLGEQLATENNLIFYECSAYSGHNTKESLLHLARFLKEQEDTVREDTIQVGHPAKKKSCCG
partner: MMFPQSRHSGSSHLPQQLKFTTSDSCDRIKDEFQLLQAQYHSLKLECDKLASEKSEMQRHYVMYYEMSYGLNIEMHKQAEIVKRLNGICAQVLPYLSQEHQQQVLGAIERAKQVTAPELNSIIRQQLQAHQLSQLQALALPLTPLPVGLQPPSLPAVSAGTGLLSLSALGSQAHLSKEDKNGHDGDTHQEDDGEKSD
B5: Microtubule-associated tumor suppressor candidate 2 (Homo sapiens), Q5JR59-3 (parent)
chain: MGHCCCKPYNCLQCLDKTNESALVKEKELSIELANIRDEVAFHTAKCEKLQKEKEELERRFEDEVKRLGWQQQAELQELEERLQLQFEAEMARLQEEHGDQLLSIRCQHQEQVEDLTASHDAALLEMENNHTVAITILQDDHDHKVQELMSTHELEKKELEENFEKLRLSLQDQVDTLTFQSQSLRDRARRFEEALRKNTEEQLEIALAPYQHLEEDMKSLKQVLEMKNQQIHEQEKKILELEKLAEKNIILEEKIQVLQQQNEDLKARIDQNTVVTRQLSEENANLQEYVEKETQEKKRLSRTNEELLWKLQTGDPTSPIKLSPTSPVYRGSSSGPSSPARVSTTPR
partner: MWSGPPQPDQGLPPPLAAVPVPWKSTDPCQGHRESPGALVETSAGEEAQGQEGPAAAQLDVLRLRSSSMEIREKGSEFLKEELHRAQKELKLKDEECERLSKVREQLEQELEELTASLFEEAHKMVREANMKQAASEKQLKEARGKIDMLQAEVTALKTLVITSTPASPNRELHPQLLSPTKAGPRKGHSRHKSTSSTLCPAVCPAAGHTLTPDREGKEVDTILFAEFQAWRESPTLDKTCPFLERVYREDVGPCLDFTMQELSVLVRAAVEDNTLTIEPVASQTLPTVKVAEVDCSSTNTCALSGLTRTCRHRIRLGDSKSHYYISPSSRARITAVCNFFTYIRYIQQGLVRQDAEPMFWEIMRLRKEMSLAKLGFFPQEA

In one assay the parent is B1. The following applies: with sh3r2_human SH3RF2, Q8TEC5.
Consider A162V, for which the “effect of a mutation on the interaction” value is given as “with no effect”.

Variants of B2 are the subject of another assay. The following applies: with ttc23_human TTC23, Q5W5X9.
For L12H, the “effect of a mutation on the interaction” value is “disrupting interaction strength”.

The variants in the next assay derive from B3. The following applies: with caco2_human CALCOCO2, Q13137.
Consider M410V, for which the “effect of a mutation on the interaction” value was “with no effect”.

R369Q: the “effect of a mutation on the interaction” value is reported as “with no effect”.

The variants in another assay derive from B4. The following applies: with tle5_human TLE5, Q08117.
As for H212Q, the “effect of a mutation on the interaction” value is “with no effect”.

The variants in another assay derive from B5. The settings on record: with RAB3IL1, Q8TBN0.
Take A89V: the “effect of a mutation on the interaction” value is “with no effect”.
